Data from IntAct's records for PubMed 31515488.

B1: Breast cancer metastasis-suppressor 1 (Homo sapiens), Q9HCU9 (parent)
chain: MPVQPPSKDTEEMEAEGDSAAEMNGEEEESEEERSGSQTESEEESSEMDDEDYERRRSECVSEMLDLEKQFSELKEKLFRERLSQLRLRLEEVGAERAPEYTEPLGGLQRSLKIRIQVAGIYKGFCLDVIRNKYECELQGAKQHLESEKLLLYDTLQGELQERIQRLEEDRQSLDLSSEWWDDKLHARGSSRSWDSLPPSKRKKAPLVSGPYIVYMLQEIDILEDWTAIKKARAAVSPQKRKSDGP
partner: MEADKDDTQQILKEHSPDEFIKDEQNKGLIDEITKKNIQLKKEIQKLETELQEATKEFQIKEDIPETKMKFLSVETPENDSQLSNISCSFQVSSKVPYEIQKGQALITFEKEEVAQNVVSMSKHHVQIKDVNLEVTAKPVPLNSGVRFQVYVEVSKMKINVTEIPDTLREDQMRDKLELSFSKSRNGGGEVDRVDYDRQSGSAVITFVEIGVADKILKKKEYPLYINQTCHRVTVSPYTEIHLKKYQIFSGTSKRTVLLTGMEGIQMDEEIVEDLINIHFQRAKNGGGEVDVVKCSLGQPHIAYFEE
B2: Protein BANP (Homo sapiens), Q8N9N5 (parent)
chain: MMSEHDLADVVQIAVEDLSPDHPVVLENHVVTDEDEPALKRQRLEINCQDPSIKTICLRLDSIEAKLQALEATCKSLEEKLDLVTNKQHSPIQVPMVAGSPLGATQTCNKVRCVVPQTTVILNNDRQNAIVAKMEDPLSNRAPDSLENVISNAVPGRRQNTIVVKVPGQEDSHHEDGESGSEASDSVSSCGQAGSQSIGSNVTLITLNSEEDYPNGTWLGDENNPEMRVRCAIIPSDMLHISTNCRTAEKMALTLLDYLFHREVQAVSNLSGQGKHGKKQLDPLTIYGIRCHLFYKFGITESDWYRIKQSIDSKCRTAWRRKQRGQSLAVKSFSRRTPNSSSYCPSEPMMSTPPPASELPQPQPQPQALHYALANAQQVQIHQIGEDGQVQVGHLHIAQVPQGEQVQITQDSEGNLQIHHVGQDGQLLEATRIPCLLAPSVFKASSGQVLQGAQLIAVASSDPAAAGVDGSPLQGSDIQVQYVQLAPVSDHTAGAQTAEALQPTLQPEMQLEHGAIQIQ
B3: Serine/threonine-protein kinase PAK 5 (Homo sapiens), Q9P286 (parent)
chain: MFGKKKKKIEISGPSNFEHRVHTGFDPQEQKFTGLPQQWHSLLADTANRPKPMVDPSCITPIQLAPMKTIVRGNKPCKETSINGLLEDFDNISVTRSNSLRKESPPTPDQGASSHGPGHAEENGFITFSQYSSESDTTADYTTEKYREKSLYGDDLDPYYRGSHAAKQNGHVMKMKHGEAYYSEVKPLKSDFARFSADYHSHLDSLSKPSEYSDLKWEYQRASSSSPLDYSFQFTPSRTAGTSGCSKESLAYSESEWGPSLDDYDRRPKSSYLNQTSPQPTMRQRSRSGSGLQEPMMPFGASAFKTHPQGHSYNSYTYPRLSEPTMCIPKVDYDRAQMVLSPPLSGSDTYPRGPAKLPQSQSKSGYSSSSHQYPSGYHKATLYHHPSLQSSSQYISTASYLSSLSLSSSTYPPPSWGSSSDQQPSRVSHEQFRAALQLVVSPGDPREYLANFIKIGEGSTGIVCIATEKHTGKQVAVKKMDLRKQQRRELLFNEVVIMRDYHHDNVVDMYSSYLVGDELWVVMEFLEGGALTDIVTHTRMNEEQIATVCLSVLRALSYLHNQGVIHRDIKSDSILLTSDGRIKLSDFGFCAQVSKEVPKRKSLVGTPYWMAPEVISRLPYGTEVDIWSLGIMVIEMIDGEPPYFNEPPLQAMRRIRDSLPPRVKDLHKVSSVLRGFLDLMLVREPSQRATAQELLGHPFLKLAGPPSCIVPLMRQYRHH
partner: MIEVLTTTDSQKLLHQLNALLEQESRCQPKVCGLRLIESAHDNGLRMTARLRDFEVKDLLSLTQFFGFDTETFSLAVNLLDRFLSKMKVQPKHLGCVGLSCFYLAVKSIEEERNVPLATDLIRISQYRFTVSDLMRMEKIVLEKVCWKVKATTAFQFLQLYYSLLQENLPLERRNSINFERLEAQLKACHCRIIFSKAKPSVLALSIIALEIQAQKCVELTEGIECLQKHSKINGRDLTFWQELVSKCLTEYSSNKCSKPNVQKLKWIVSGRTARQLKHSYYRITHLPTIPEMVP
B4: Gem-associated protein 7 (Homo sapiens), Q9H840 (parent)
chain: MQTPVNIPVPVLRLPRGPDGFSRGFAPDGRRAPLRPEVPEIQECPIAQESLESQEQRARAALRERYLRSLLAMVGHQVSFTLHEGVRVAAHFGATDLDVANFYVSQLQTPIGVQAEALLRCSDIISYTFKP
B5: Protein-lysine N-methyltransferase EEF2KMT (Homo sapiens), Q96G04 (parent)
chain: MAPEENAGTELLLQSFERRFLAARTLRSFPWQSLEAKLRDSSDSELLRDILHKTVKHPVCVKHPPSVKYARCFLSELIKKHEAVHTEPLDELYEALAETLMAKESTQGHRSYLLPSGGSVTLSESTAIISYGTTGLVTWDAALYLAEWAIENPAVFTNRTVLELGSGAGLTGLAICKMCRPRAYIFSDCHSRVLEQLRGNVLLNGLSLEADITAKLDSPRVTVAQLDWDVATVHQLSAFQPDVVIAADVLYCPEAIMSLVGVLRRLAACREHQRAPEVYVAFTVRNPETCQLFTTELGRAGIRWEVEPRHEQKLFPYEEHLEMAMLNLTL
B6: Rab-like protein 2A (Homo sapiens), Q9UBK7 (parent)
chain: MAEDKTKPSELDQGKYDADDNVKIICLGDSAVGKSKLMERFLMDGFQPQQLSTYALTLYKHTATVDGKTILVDFWDTAGQERFQSMHASYYHKAHACIMVFDIQRKVTYRNLSTWYTELREFRPEIPCIVVANKIDDINVTQKSFNFAKKFSLPLYFVSAADGTNVVKLFNDAIRLAVSYKQNSQDFMDEIFQELENFSLEQEEEDVPDQEQSSSIETPSEEVASPHS
partner: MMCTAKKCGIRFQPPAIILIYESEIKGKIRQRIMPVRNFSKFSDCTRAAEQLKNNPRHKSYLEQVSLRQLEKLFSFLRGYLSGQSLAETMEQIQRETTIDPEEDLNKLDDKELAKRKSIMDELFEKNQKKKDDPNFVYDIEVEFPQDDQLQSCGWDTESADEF

Variants of: B1
Details: with nmi_human NMI

Row | Variant | effect of a mutation on the interaction
1 | S7G | with no effect

Variants of: B2
Details: with zn471_human ZNF471, Q9BX82
zn471_human ZNF471, Q9BX82, sequence (Q9BX82 whole entry): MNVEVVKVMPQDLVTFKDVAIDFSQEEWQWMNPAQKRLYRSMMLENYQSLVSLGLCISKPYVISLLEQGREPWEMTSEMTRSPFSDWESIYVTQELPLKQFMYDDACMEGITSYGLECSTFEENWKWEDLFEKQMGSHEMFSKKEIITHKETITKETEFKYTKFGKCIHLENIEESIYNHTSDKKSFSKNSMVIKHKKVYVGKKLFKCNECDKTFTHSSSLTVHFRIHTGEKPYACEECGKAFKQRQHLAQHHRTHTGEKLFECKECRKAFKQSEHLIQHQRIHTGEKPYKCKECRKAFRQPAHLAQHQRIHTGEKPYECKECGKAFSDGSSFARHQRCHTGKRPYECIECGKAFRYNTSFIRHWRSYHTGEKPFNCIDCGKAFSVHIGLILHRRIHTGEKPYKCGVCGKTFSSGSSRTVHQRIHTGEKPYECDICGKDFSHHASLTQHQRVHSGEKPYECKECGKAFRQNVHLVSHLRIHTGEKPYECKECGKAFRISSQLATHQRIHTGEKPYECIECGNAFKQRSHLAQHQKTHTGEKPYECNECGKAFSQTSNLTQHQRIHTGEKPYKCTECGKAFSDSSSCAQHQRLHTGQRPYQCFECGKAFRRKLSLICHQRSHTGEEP

Row | Variant | effect of a mutation on the interaction
2 | P348S | with no effect

Variants of: B3
Details: with ccng1_human CCNG1, P51959

Row | Variant | effect of a mutation on the interaction
3 | R335P | with no effect
4 | S511N | with no effect
5 | V604I | with no effect

Variants of: B4
Details: with gemi6_human GEMIN6, Q8WXD5
gemi6_human GEMIN6, Q8WXD5, sequence (Q8WXD5 whole entry): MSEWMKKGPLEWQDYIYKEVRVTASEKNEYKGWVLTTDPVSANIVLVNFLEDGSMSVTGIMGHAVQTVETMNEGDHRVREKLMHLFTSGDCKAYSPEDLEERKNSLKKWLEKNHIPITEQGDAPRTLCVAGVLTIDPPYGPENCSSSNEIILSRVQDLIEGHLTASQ

Row | Variant | effect of a mutation on the interaction
6 | R68C | with no effect

Variants of: B5
Details: with prdc1_human PRTFDC1, Q9NRG1
prdc1_human PRTFDC1, Q9NRG1, sequence (Q9NRG1 whole entry): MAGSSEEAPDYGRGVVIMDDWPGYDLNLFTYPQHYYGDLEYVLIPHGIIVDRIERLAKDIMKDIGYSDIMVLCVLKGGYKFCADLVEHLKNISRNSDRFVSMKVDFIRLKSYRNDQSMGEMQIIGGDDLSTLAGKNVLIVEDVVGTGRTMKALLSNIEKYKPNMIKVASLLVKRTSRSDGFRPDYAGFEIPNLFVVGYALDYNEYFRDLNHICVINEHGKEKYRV

Row | Variant | effect of a mutation on the interaction
7 | S123C | with no effect

Variants of: B6
Details: with cep19_human CEP19, Q96LK0

Row | Variant | effect of a mutation on the interaction
8 | T53M | with no effect
9 | R82Q | with no effect

Other lines, results leading:

Row | effect of a mutation on the interaction | Variant
10 | with no effect | A94T
11 | with no effect | L119F
